In the MegaScale stability set (Tsuboyama et al. 2023):

B1: r16_88_TrROS_Hall (parent)
chain: EVIELKIKFKTPEQREKLKEIAKKLNAEVVEEKDGEVIIRFKTPEQAERALKEAEKLGAEVEL

Variants of: B1
Experiment: folding stability dG (cDNA display proteolysis); higher = more stable
Conditions: PBS, room temperature

Variant	folding stability dG
EVIELKIKFKTPEQREKPKEIAKKLNAEVVEEKDGEVIIRFKTPEQAERALKEAEKLGAEVEL	1.65 kcal/mol
EVIELKIKFKTPEQREKTKEIAKKLNAEVVEEKDGEVIIRFKTPEQAERALKEAEKLGAEVEL	4.15 kcal/mol
EHIELKIKFKTPEQREKLKEIAKKLNAEVVEEKDGEVIIRFKTPEQAERALKEAEKLGAEVEL	4.34 kcal/mol
ETIELKIKFKTPEQREKLKEIAKKLNAEVVEEKDGEVIIRFKTPEQAERALKEAEKLGAEVEL	4.19 kcal/mol
EVIELKIKFKTPEQREKLKEIAKKLNAEVVEEKDGKVIIRFKTPEQAERALKEAEKLGAEVEL	4.65 kcal/mol
EVIELKIKFKTPEQREKLKEIAKKLNAEVVEEKDGEVQIRFKTPEQAERALKEAEKLGAEVEL	4.33 kcal/mol
EVIELKIKFKTPEQREKLKEIAKKLNAEVVEEKDGEVVIRFKTPEQAERALKEAEKLGAEVEL	4.44 kcal/mol
EVIELKIKFKTPEQREKLKEIAKKLNAEVVEEKDGEVKIRFKTPEQAERALKEAEKLGAEVEL	3.82 kcal/mol
EVIELKIKFKTPEQMEKLKEIAKKLNAEVVEEKDGEVIIRFKTPEQAERALKEAEKLGAEVEL	4.31 kcal/mol
EVIELKIKFKTPEQREKLKEIAKKLNAEVVEEKDGEVIIRFKTEEQAERALKEAEKLGAEVEL	4.1 kcal/mol
EVIELKIKFKTPEQREKLKEIAKKLNAEVVEEKDGEVIIRFKTNEQAERALKEAEKLGAEVEL	4.55 kcal/mol
EVLELKIKFKTPEQREKLKEIAKKLNAEVVEEKDGEVIIRFKTPEQAERALKEAEKLGAEVEL	4.63 kcal/mol
EVIELKIKFKTPEQREKLKEIAKKLNACVVEEKDGEVIIRFKTPEQAERALKEAEKLGAEVEL	4.65 kcal/mol
EVIELKIKFKTPEQREKLKEIAKKLNATVVEEKDGEVIIRFKTPEQAERALKEAEKLGAEVEL	4.4 kcal/mol
EVIELKIKFKTPEQREKLKEIAKKLNAEVVEEKDGESIIRFKTPEQAERALKEAEKLGAEVEL	4.19 kcal/mol
EVIELKIKFKTPEQREKLKEIAQKLNAEVVEEKDGEVIIRFKTPEQAERALKEAEKLGAEVEL	4.27 kcal/mol
EVIELKIKFKTPEQREKLKEIAKKLNAEVVEEKHGEVIIRFKTPEQAERALKEAEKLGAEVEL	4.52 kcal/mol
EVIELKIKFKTPEQREKLKEIAKKLNAEVVEEKFGEVIIRFKTPEQAERALKEAEKLGAEVEL	4.34 kcal/mol
EVIELKIKFKHPEQREKLKEIAKKLNAEVVEEKDGEVIIRFKTPEQAERALKEAEKLGAEVEL	4.42 kcal/mol
EVIELKIKFKPPEQREKLKEIAKKLNAEVVEEKDGEVIIRFKTPEQAERALKEAEKLGAEVEL	3.48 kcal/mol
EVIELKIKFKTPEQREKLKEIAKKLNAEVVEEKDGEVIIRFKTPEQAERALKEAAKLGAEVEL	4.43 kcal/mol
EVIELKIKFKTPEQREKLKEIAKKLNAEVVEEKDGEVIIRFKTPEQAERALKEAIKLGAEVEL	4.46 kcal/mol

Variant	folding stability dG
EVIELKIKFKTPEQREKLKEIAKKLNAEVVEEKDGEVIIRFKTPEQAERALKEAEKLGAEVEP	4.69 kcal/mol
EVIELKIKFKTPEQREKLKEIAKKLNAEVVEEKDGEVIIRFKTPEQAERALKEAEKLNAEVEL	4.25 kcal/mol
EVIELKIKFKTPEQREKLKEIAKKLNAEVVEEKDGEVIIRFKTPEQAERALKEAEKLGAEVCL	4.59 kcal/mol
EVIELKIKFKTPEQREKLKEIAKKLNAEVVEEKDGEVIIRFKTPEQAERALKEAEKLGAEVHL	4.37 kcal/mol
EVIELKIKFKTPEQREKLKEIAKKLNAEVVEEKDGEVIIRFKTPEQAERALKEAEKLGAEVYL	4.12 kcal/mol
EVIELKIKFKTPSQREKLKEIAKKLNAEVVEEKDGEVIIRFKTPEQAERALKEAEKLGAEVEL	4.66 kcal/mol
EVIELKIKFKTPRQREKLKEIAKKLNAEVVEEKDGEVIIRFKTPEQAERALKEAEKLGAEVEL	4.58 kcal/mol
EVIELKIKFKTPEQREKLKEIAKKLNAEVVEEKDGEVIIRFKYPEQAERALKEAEKLGAEVEL	4.43 kcal/mol
EVIELKIKFKTPEQREKLKEIAKKLNAEHVEEKDGEVIIRFKTPEQAERALKEAEKLGAEVEL	4.53 kcal/mol
EVIELKIKFKTPEQREKLKEIAKELNAEVVEEKDGEVIIRFKTPEQAERALKEAEKLGAEVEL	4.43 kcal/mol
EVIELKIKFKTQEQREKLKEIAKKLNAEVVEEKDGEVIIRFKTPEQAERALKEAEKLGAEVEL	4.3 kcal/mol
EVIELKIKFKTYEQREKLKEIAKKLNAEVVEEKDGEVIIRFKTPEQAERALKEAEKLGAEVEL	4.91 kcal/mol
EVIMLKIKFKTPEQREKLKEIAKKLNAEVVEEKDGEVIIRFKTPEQAERALKEAEKLGAEVEL	4.72 kcal/mol
EVIVLKIKFKTPEQREKLKEIAKKLNAEVVEEKDGEVIIRFKTPEQAERALKEAEKLGAEVEL	4.58 kcal/mol
EVIRLKIKFKTPEQREKLKEIAKKLNAEVVEEKDGEVIIRFKTPEQAERALKEAEKLGAEVEL	4.58 kcal/mol
EVIQLKIKFKTPEQREKLKEIAKKLNAEVVEEKDGEVIIRFKTPEQAERALKEAEKLGAEVEL	4.79 kcal/mol
EVIELKIKFKTPEQREKLKEIMKKLNAEVVEEKDGEVIIRFKTPEQAERALKEAEKLGAEVEL	4.35 kcal/mol
EVIELKIKFKTPEQREKLKEIIKKLNAEVVEEKDGEVIIRFKTPEQAERALKEAEKLGAEVEL	4.38 kcal/mol
EVIELKIKFKTPEQRESLKEIAKKLNAEVVEEKDGEVIIRFKTPEQAERALKEAEKLGAEVEL	4.45 kcal/mol
EVIELKIKFKTPEQREYLKEIAKKLNAEVVEEKDGEVIIRFKTPEQAERALKEAEKLGAEVEL	4.56 kcal/mol
EVIELKIKFKTPEQREGLKEIAKKLNAEVVEEKDGEVIIRFKTPEQAERALKEAEKLGAEVEL	4.38 kcal/mol
